Assay results as given in US20070065468A1.

Molecular target: mite allergen specific IgE of atopic subjects
Assay: cell-based or functional assay

B1: CHO-K1-expressed three-in-one chimeric mite allergen D1proenzD1LB5LD2 (protein)
chain: RPSSIKTFEEYKKAFNKSYATFEDEEAARKNFLESVKYVQSNGGAINHLSDLSLDEFKNRFLMSAEAFEHLKTQFDLNAETNACSINGNAPAEIDLRQMRTVTPIRMQGGCGSCWAFSGVAATESAYLAYRNQSLDLAEQELVDCASQHGCHGDTIPRGIEYIQHNGVVQESYYRYVAREQSCRRPNAQRFGISNYCQIYPPNVNKIREALAQTHSAIAVIIGIKDLDAFRHYDGRTIIQRDNGYQPNYHAVNIVGYSNAQGVDYWIVRNSWDTNWGDNGYGYFAANIDLMMIEEYPYVVILGGGSGGGSGGQEHKPKKDDFRNEFDHLLIEQANHAIEKGEHQLLYLQHQLDELNENKSKELQEKIIRELDVVCAMIEGAQGALERELKRTDLNILERFNYEEAQTLSKILLKDLKETEQKVKDIQTQGGGSGGGSGGDQVDVKDCANHEIKKVLVPGCHGSEPCIIHRGKPFQLEAVFEANQNTKTAKIEIKASIDGLEVDVPGIDPNACHYMKCPLVKGQQYDIKYTWNVPKIAPKSENVVVTVKVMGDDGVLACAIATHAKIRD
fold decrease in IgE-mediated histamine release by human basophils: 100 times | histamine release in basophils (whole blood of two atopic individuals): 104 fold | skin prick test, positive skin reactivity in 15 atopic subjects: 26.6%
